Patent US20210388087A1 (Chugai, published 2021)
Numbering of substitutions follows the chain as printed. Numbers in names are those of the source.

T1: Human CD3eg linker (human)
T1 construct: Single chain: epsilon and gamma subunits of human CD3 joined by a 29-mer linker, Flag-tag at the C-terminus; also called recombinant human CD3
T1 chain: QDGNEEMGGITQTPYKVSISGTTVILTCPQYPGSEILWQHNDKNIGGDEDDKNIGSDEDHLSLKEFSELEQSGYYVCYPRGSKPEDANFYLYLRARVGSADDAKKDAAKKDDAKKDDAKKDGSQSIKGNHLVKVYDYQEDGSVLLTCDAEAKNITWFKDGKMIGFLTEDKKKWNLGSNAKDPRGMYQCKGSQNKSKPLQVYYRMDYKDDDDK

B1: H183/L072 VH G100hI (antibody, name in Kabat numbering, V domains shown)
VH: QVQLVESGGGLVQPGRSLRLSCAASGFTFSNAWMHWVRQAPGKGLEWVAQIKDKGNAYAAYYAPSVKGRFTISRDDSKNSIYLQMNSLKTEDTAVYYCHYVHYASASTVLPAFIVDAWGQGTTVTVSS
VL: DIVMTQSPLSLPVTPGEPASISCQASQELVHMNRNTYLHWYQQKPGQAPRLLIYKVSNRFPGVPDRFSGSGSGTDFTLKISRVEAEDVGVYYCAQGTSVPFTFGQGTKLEIK
B2: H183/L072 VH H35L (antibody, name in Kabat numbering, V domains shown)
VH: B1 VH with H35L, I114G
VL: B1 VL
B3: H183/L072 VH H35W (antibody, name in Kabat numbering, V domains shown)
VH: B1 VH with H35W, I114G
VL: B1 VL
B4: H183/L072 VH H96M (antibody, name in Kabat numbering, V domains shown)
VH: B1 VH with H102M, I114G
VL: B1 VL
B5: H183/L072 VH H35F (antibody, name in Kabat numbering, V domains shown)
VH: B1 VH with H35F, I114G
VL: B1 VL
B6: H183/L072 VH G100hL (antibody, name in Kabat numbering, V domains shown)
VH: B1 VH with I114L
VL: B1 VL
B7: H183/L072 VH H35R (antibody, name in Kabat numbering, V domains shown)
VH: B1 VH with H35R, I114G
VL: B1 VL
B8: H183/L072 VH H35D (antibody, name in Kabat numbering, V domains shown)
VH: B1 VH with H35D, I114G
VL: B1 VL
B9: H183/L072 VH H93M (antibody, name in Kabat numbering, V domains shown)
VH: B1 VH with H99M, I114G
VL: B1 VL
B10: H183/L072 VH H35A (antibody, name in Kabat numbering, V domains shown)
VH: B1 VH with H35A, I114G
VL: B1 VL
B11: H183/L072 VH H35I (antibody, name in Kabat numbering, V domains shown)
VH: B1 VH with H35I, I114G
VL: B1 VL
B12: H183/L072 VH H35S (antibody, name in Kabat numbering, V domains shown)
VH: B1 VH with H35S, I114G
VL: B1 VL
B13: H183/L072 VH H35Q (antibody, name in Kabat numbering, V domains shown)
VH: B1 VH with H35Q, I114G
VL: B1 VL
B14: H183/L072 VH H96L (antibody, name in Kabat numbering, V domains shown)
VH: B1 VH with H102L, I114G
VL: B1 VL
B15: H183/L072 VH H93L (antibody, name in Kabat numbering, V domains shown)
VH: B1 VH with H99L, I114G
VL: B1 VL
B16: H183/L072 VH H35P (antibody, name in Kabat numbering, V domains shown)
VH: B1 VH with H35P, I114G
VL: B1 VL
B17: H183/L072 VH G100hM (antibody, name in Kabat numbering, V domains shown)
VH: B1 VH with I114M
VL: B1 VL
B18: H183/L072 VH H93I (antibody, name in Kabat numbering, V domains shown)
VH: B1 VH with H99I, I114G
VL: B1 VL
B19: H183/L072 VH H35V (antibody, name in Kabat numbering, V domains shown)
VH: B1 VH with H35V, I114G
VL: B1 VL
B20: H183/L072 VH H35Y (antibody, name in Kabat numbering, V domains shown)
VH: B1 VH with H35Y, I114G
VL: B1 VL
B21: H183/L072 VH H35T (antibody, name in Kabat numbering, V domains shown)
VH: B1 VH with H35T, I114G
VL: B1 VL
B22: H183/L072 VH H35G (antibody, name in Kabat numbering, V domains shown)
VH: B1 VH with H35G, I114G
VL: B1 VL
B23: H183/L072 VH H93A (antibody, name in Kabat numbering, V domains shown)
VH: B1 VH with H99A, I114G
VL: B1 VL
B24: H183/L072 VH H35E (antibody, name in Kabat numbering, V domains shown)
VH: B1 VH with H35E, I114G
VL: B1 VL
B25: H183/L072 VH G100hP (antibody, name in Kabat numbering, V domains shown)
VH: B1 VH with I114P
VL: B1 VL
B26: H183/L072 VH H35M (antibody, name in Kabat numbering, V domains shown)
VH: B1 VH with H35M, I114G
VL: B1 VL
B27: H183/L072 VH H93P (antibody, name in Kabat numbering, V domains shown)
VH: B1 VH with H99P, I114G
VL: B1 VL
B28: H183/L072 VH H96I (antibody, name in Kabat numbering, V domains shown)
VH: B1 VH with H102I, I114G
VL: B1 VL
B29: H183/L072 VH H35N (antibody, name in Kabat numbering, V domains shown)
VH: B1 VH with H35N, I114G
VL: B1 VL
B30: H183/L072 VH H96A (antibody, name in Kabat numbering, V domains shown)
VH: B1 VH with H102A, I114G
VL: B1 VL
B31: H183/L072 VH H35K (antibody, name in Kabat numbering, V domains shown)
VH: B1 VH with H35K, I114G
VL: B1 VL

Target: T1, Human CD3eg linker
Assay: Biacore SPR, vs template H183/L072

Row | Binder | fold change of affinity [fold]
1 | B1 | 2.6
2 | B2 | 0
3 | B3 | 0
4 | B4 | 0.1
5 | B5 | 0
6 | B6 | 0.8
7 | B7 | 0
8 | B8 | 0
9 | B9 | 0
10 | B10 | 0
11 | B11 | 0
12 | B12 | 0.5
13 | B13 | 0
14 | B14 | 0
15 | B15 | 0
16 | B16 | 0

Row | Binder | fold change of affinity [fold]
17 | B17 | 4.2
18 | B18 | 0
19 | B19 | 0
20 | B20 | 0
21 | B21 | 0
22 | B22 | 0
23 | B23 | 0
24 | B24 | 0
25 | B25 | 0.6
26 | B26 | 0
27 | B27 | 0
28 | B28 | 0
29 | B29 | 0
30 | B30 | 0.3
31 | B31 | 0
